From patent US20220333113
Residue numbers refer to the chain shown, from its start.

What was measured:
[1] = molecular target: T1, RIG-I R664A (Homo sapiens) (UniProt O95786); assay: filter; settings: J = PPdU at every J; SB18T0.01 + 1 mM DTT, 37 C
T1 sequence: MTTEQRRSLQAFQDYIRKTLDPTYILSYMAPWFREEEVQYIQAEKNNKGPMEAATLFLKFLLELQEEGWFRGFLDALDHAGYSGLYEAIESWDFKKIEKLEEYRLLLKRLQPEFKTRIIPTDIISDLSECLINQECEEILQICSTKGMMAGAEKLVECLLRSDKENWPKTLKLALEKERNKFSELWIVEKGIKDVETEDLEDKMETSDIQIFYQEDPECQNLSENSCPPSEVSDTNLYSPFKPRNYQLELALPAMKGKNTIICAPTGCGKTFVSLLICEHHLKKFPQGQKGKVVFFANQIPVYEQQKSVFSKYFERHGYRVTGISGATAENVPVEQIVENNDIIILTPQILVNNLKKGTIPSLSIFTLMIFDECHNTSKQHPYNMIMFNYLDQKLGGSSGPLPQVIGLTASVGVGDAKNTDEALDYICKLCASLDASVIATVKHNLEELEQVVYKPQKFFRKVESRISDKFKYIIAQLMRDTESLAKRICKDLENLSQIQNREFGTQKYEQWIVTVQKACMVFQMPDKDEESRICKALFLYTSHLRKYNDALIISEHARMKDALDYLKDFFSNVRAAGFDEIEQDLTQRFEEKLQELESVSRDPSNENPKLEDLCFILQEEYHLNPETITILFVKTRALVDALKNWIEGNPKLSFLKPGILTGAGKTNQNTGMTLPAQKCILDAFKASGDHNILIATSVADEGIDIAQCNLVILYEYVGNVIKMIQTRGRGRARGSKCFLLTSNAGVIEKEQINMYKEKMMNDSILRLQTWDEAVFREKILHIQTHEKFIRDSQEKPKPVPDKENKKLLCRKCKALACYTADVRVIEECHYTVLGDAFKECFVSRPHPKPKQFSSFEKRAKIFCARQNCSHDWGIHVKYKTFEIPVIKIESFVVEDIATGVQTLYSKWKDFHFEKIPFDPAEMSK

[2] = molecular target: T2, RIG-I D872A (Homo sapiens) (UniProt O95786); assay: filter; settings: J = PPdU at every J; SB18T0.01 + 1 mM DTT, 37 C
T2 sequence: T1 sequence with A664R, D872A

ATCTCTGTGTCATGTGTTTTAATGTCAGTTTAATGATGAGG [14832-55_8]
Kd [1]: 0.41 nM | Kd [2]: 0.61 nM
